Assay [1] deals with T1, hD54+ins2 bait (GAL4 DNA-binding domain fusion, pAS2-1hD54+ins2) (human, UniProt P04386 1-147 (Saccharomyces cerevisiae entry)).
T1 construct: Fusion expressed in yeast
Nature of the assay: yeast two-hybrid, Y190 co-transfectants, HIS3/lacZ reporters; interactor (GAL4-AD fusion) against bait (GAL4-DB fusion). The procedure: (§1) Interactions between baits and interactors were assessed by qualitatively and/or quantitatively determining HIS3 and/or lacZ reporter gene activity in Y190 co-transfectants.
(§2) Interactions between D52-like proteins within the yeast two-hybrid system, as measured by quantitative β-galactosidase assays. […] Three (or two*) colonies from each co-transfected Y190 strain were cultured in the absence of histidine, and assayed separately for β-galactosidase activity (see Methods). The mean number of β-galactosidase activity units obtained for each co-transfection is presented, ± the standard error.

Assay [2] addresses T2, hD54-ins2 bait (GAL4 DNA-binding domain fusion, pAS2-1hD54-ins2) (human, UniProt P04386 1-147 (Saccharomyces cerevisiae entry)).
T2 construct: Fusion expressed in yeast
Described as above. The method, then:
as §1, §2

In assay [3] the target is T3, hD52 bait (GAL4 DNA-binding domain fusion, pAS2-1hD52) (human, UniProt P04386 1-147 (Saccharomyces cerevisiae entry)).
T3 construct: Fusion expressed in yeast; also called full-length hD52 bait
The assay is described as above. The procedure:
as §1, §2

The target in assay [4] is T4, hD53 bait (GAL4 DNA-binding domain fusion, pAS2-1hD53) (human, UniProt P04386 1-147 (Saccharomyces cerevisiae entry)).
T4 construct: Fusion expressed in yeast; also called full-length hD53 bait
Described as above. The procedure: as §1, §2

Assay [5] concerns the target T4, hD53 bait (GAL4 DNA-binding domain …). The assay is described as follows: yeast two-hybrid screening of a human breast carcinoma cDNA library in Y190 (His+ lacZ+).
Assay [6] deals with GST protein (glutathione S-transferase alone) (UniProt P08515 1-218 = GST). The assay is described as follows: GST pull-down, autoradiography. The procedure:
Proteins were isolated by incubating E. coli samples in isotonic lysis buffer (10 mM potassium phosphate pH 8.0, 140 mM KCl, 3 mM MgCl_2, 1 mM DTT, 0.5% Nonidet P-40, 0.5 mM PMSF) for 15 min on wet ice, followed by brief sonication. Protein product sizes were verified by electrophoresing pre- and post-induction protein samples on 10% SDS-polyacrylamide gels, followed by Coomassie Brilliant Blue staining. Post-induction protein extracts were incubated with glutathione-agarose (Sigma) which had been previously saturated in 0.5% (w/v) BSA (fraction V, Boehringer-Mannheim). Recombinant proteins (2–5 μg) bound to 30 μl glutathione agarose were then incubated with 7 μl of each in vitro translation reaction, and 2.6 mg soluble BL21 protein extract, prepared as described in Ausubel, F. M., el al., *Current Protocols in Molecular Biology* Vol. 3 (1996), for 2 h at 4° C. Matrixes were washed 3 times with 1 ml cold buffer (50 mM potassium phosphate pH 7.5, 150 mM KCl, 10 mM MgCl_2, 10% (v/v) glycerol, 1% Triton X-100, 0.5 mM PMSF), and bound proteins were eluted in 12 μl SDS-loading buffer (50 mM Tris pH 6.8, 2% (w/v) SDS, 10% (v/v) glycerol, 10% (v/v) 2-mercaptoethanol) by boiling for 5 min. Eluted proteins (6 μl) were separated on 10% SDS-polyacrylamide gels, which were stained with Coomassie Brilliant Blue, dried, and exposed to autoradiographic film (BioMax, Kodak) for 10 days at −80° C.

Here are results for eleven molecules from patent publication US6458943 (INSTITUT NATIONAL DE LA SANTE ET DE LA RECHERCHE MEDICALE, dated 2002).

Chain of GST protein (glutathione S-transferase alone) (P08515 whole entry): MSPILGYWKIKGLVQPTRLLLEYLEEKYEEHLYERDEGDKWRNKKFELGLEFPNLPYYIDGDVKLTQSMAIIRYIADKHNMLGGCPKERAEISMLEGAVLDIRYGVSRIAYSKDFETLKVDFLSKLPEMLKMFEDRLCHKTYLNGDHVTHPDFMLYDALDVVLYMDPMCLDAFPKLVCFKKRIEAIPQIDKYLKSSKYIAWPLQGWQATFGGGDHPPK

B1: hD54+ins2 interactor (GAL4 activation domain fusion, pACT2hD54+ins2) (other)
chain: ANFNQSGNIADSSLSFTFTNSSNGPNLITTQTNSQALSQPIASSNVHDNFMNNEITASKIDDGNNSKPLSPGWTDQTAYNAFGITTGMFNTTTMDDVYNYLFDDEDTPPNPKKEMDSAGQDINLNSPNKGLLSDSMTDVPVDTGVAARTPAVEGLTEAEEEELRAELTKVEEEIVTLRQVLAAKEKHCGELKRRLGLSTLGELKQNLSRSWHDVQVSSAYVKTSEKLGEWNEKVTQSDLYKKTQETLSQAGQKTSAALSTVGSAISRKLGDMRNSATFKSFEDRVGTIKSKVVGDRENGSDNLPSSAGSGDKPLSDPAPF
notes: range 768-881
Consider B1, for which the binding result in assay [1], in assay [2], in assay [3] and in assay [4] was “binds” in each case.

B2: hD53 library interactor, pAD-GAL4 clone beginning at nt 111 of the hD53 cDNA (<Met1) (other)
chain: PSALFGGANFNQSGNIADSSLSFTFTNSSNGPNLITTQTNSQALSQPIASSNVHDNFMNNEITASKIDDGNNSKPLSPGWTDQTAYNAFGITTGMFNTTTMDDVYNYLFDDEDTPPNPKKEMEAQAQGLLETEPLQGTDEDAVASADFSSMLSEEEKEELKAELVQLEDEITTLRQVLSAKERHLVEIKQKLGMNLMNELKQNFSKSWHDMQTTTAYKKTHETLSHAGQKATAAFSNVGTAISKKFGDMSYSIRHSISMPAMRNSPTFKSFEERVETTVTSLKTKVGGTNPNGGSFEEVLSSTAHASAQSLAGGSRRTKEEELQC
notes: range 761-881; also called nt 111 (<Met^1)
Consider B2, for which, in assay [5], the binding result was “binds”.

B3: hD53 library interactor, pAD-GAL4 clone beginning at nt 81 of the hD53 cDNA (<Met1) (other)
chain: B2 chain
notes: range 761-881; also called nt 81 (<Met^1)
As to B3, the binding result in assay [5] is “binds”.

B4: mD52(1-163) interactor (GAL4 activation domain fusion, pACT2mD52(1-163)) (other)
chain: ANFNQSGNIADSSLSFTFTNSSNGPNLITTQTNSQALSQPIASSNVHDNFMNNEITASKIDDGNNSKPLSPGWTDQTAYNAFGITTGMFNTTTMDDVYNYLFDDEDTPPNPKKEMDRGEQGLLKTEPVAEEGEDAVTMLSAPEALTEEEQEELRRELTKVEEEIQTLSQVLAAKEKHLAELKRKLGISSLQEFKQNIAKGWQDVTATNAYKKTSETLSQAGQKASAAFSSVGSVITKKLEDVKNSPTFKSFEEKVENLKSKVGGAKPAGGDFGEVLN
notes: range 768-881
B4: the binding result in assay [1], in assay [2], in assay [3] and in assay [4] was “binds” throughout.

B5: in vitro-translated 35S-labelled mD52 (pTL1mD52) (other)
chain: MDRGEQGLLKTEPVAEEGEDAVTMLSAPEALTEEEQEELRRELTKVEEEIQTLSQVLAAKEKHLAELKRKLGISSLQEFKQNIAKGWQDVTATNAYKKTSETLSQAGQKASAAFSSVGSVITKKLEDVKNSPTFKSFEEKVENLKSKVGGAKPAGGDFGEVLNSTANATSTMTTEPPPEQMTESP
modifications: 35S-methionine label
As to B5, in assay [6], the binding result is recorded as “no binding”.

B6: +5 hD53 library interactor (novel hD53 isoform, pAD-GAL4 clone) (other)
chain: PSALFGGANFNQSGNIADSSLSFTFTNSSNGPNLITTQTNSQALSQPIASSNVHDNFMNNEITASKIDDGNNSKPLSPGWTDQTAYNAFGITTGMFNTTTMDDVYNYLFDDEDTPPNPKKESSWLPWSEVLHRPWRNHPICLLETEPLQGTDEDAVASADFSSMLSEEEKEELKAELVQLEDEITTLRQVLSAKERHLVEIKQKLGMNLMNELKQNFSKSWHDMQTTTAYKKTHETLSHAGQKATAAFSNVGTAISKKFGDMRRK
notes: range 761-881; also called nt 1 (Ser^1)
As to B6, the binding result in assay [5] is given as “binds”.

B7: hD52 interactor (GAL4 activation domain fusion, pAD-GAL4hD52) (other)
chain: PSALFGGANFNQSGNIADSSLSFTFTNSSNGPNLITTQTNSQALSQPIASSNVHDNFMNNEITASKIDDGNNSKPLSPGWTDQTAYNAFGITTGMFNTTTMDDVYNYLFDDEDTPPNPKKEMDRGEQGLLRTDPVPEEGEDVAATISATETLSEEEQEELRRELAKVEEEIQTLSQVLAAKEKHLAEIKRKLGINSLQELKQNIAKGWQDVTATSAYKKTSETLSQAGQKASAAFSSVGSVITKKLEDVKNSPTFKSFEEKVENLKSKVGGTKPAGGDFGEVLNSAANASATTTEPLPEKTQESL
notes: range 761-881; also called hD52^c
B7: the binding result in assay [5], in assay [1], in assay [2] and in assay [3] was “binds” in each case.

B8: in vitro-translated 35S-labelled hD54-ins2 (pTL1hD54-ins2) (other)
chain: MDSAGQDINLNSPNKGLLSDSMTDVPVDTGVAARTPAVEGLTEAEEEELRAELTKVEEEIVTLRQVLAAKEKHCGELKRRLGLSTLGELKQNLSRSWHDVQVSSAYKKTQETLSQAGQKTSAALSTVGSAISRKLGDMRNSATFKSFEDRVGTIKSKVVGDRENGSDNLPSSAGSGDKPLSDPAPF
modifications: 35S-methionine label
B8: in assay [6], the binding result was “no binding”.

B9: hD54-ins2 interactor (GAL4 activation domain fusion, pACT2hD54-ins2) (other)
chain: ANFNQSGNIADSSLSFTFTNSSNGPNLITTQTNSQALSQPIASSNVHDNFMNNEITASKIDDGNNSKPLSPGWTDQTAYNAFGITTGMFNTTTMDDVYNYLFDDEDTPPNPKKEMDSAGQDINLNSPNKGLLSDSMTDVPVDTGVAARTPAVEGLTEAEEEELRAELTKVEEEIVTLRQVLAAKEKHCGELKRRLGLSTLGELKQNLSRSWHDVQVSSAYKKTQETLSQAGQKTSAALSTVGSAISRKLGDMRNSATFKSFEDRVGTIKSKVVGDRENGSDNLPSSAGSGDKPLSDPAPF
notes: range 768-881
For the molecule B9, the binding result in assay [1], in assay [2], in assay [3] and in assay [4] was “binds” in each case.

B10: hD53 interactor (GAL4 activation domain fusion, pACT2hD53) (other)
chain: ANFNQSGNIADSSLSFTFTNSSNGPNLITTQTNSQALSQPIASSNVHDNFMNNEITASKIDDGNNSKPLSPGWTDQTAYNAFGITTGMFNTTTMDDVYNYLFDDEDTPPNPKKEMEAQAQGLLETEPLQGTDEDAVASADFSSMLSEEEKEELKAELVQLEDEITTLRQVLSAKERHLVEIKQKLGMNLMNELKQNFSKSWHDMQTTTAYKKTHETLSHAGQKATAAFSNVGTAISKKFGDMSYSIRHSISMPAMRNSPTFKSFEERVETTVTSLKTKVGGTNPNGGSFEEVLSSTAHASAQSLAGGSRRTKEEELQC
notes: range 768-881
For B10, the binding result in assay [1], in assay [2], in assay [3] and in assay [4] was “binds” throughout.

B11: in vitro-translated 35S-labelled hD52 (pTL1hD52) (other)
chain: MDRGEQGLLRTDPVPEEGEDVAATISATETLSEEEQEELRRELAKVEEEIQTLSQVLAAKEKHLAEIKRKLGINSLQELKQNIAKGWQDVTATSAYKKTSETLSQAGQKASAAFSSVGSVITKKLEDVKNSPTFKSFEEKVENLKSKVGGTKPAGGDFGEVLNSAANASATTTEPLPEKTQESL
modifications: 35S-methionine label
B11: the binding result in assay [6] is recorded as “no binding”.
